Data on 2 molecules can be found in publication PMC8026907.

One may read the Kd as a measure of binding affinity in units of concentration. Read a high Kd as weaker binding. Usually stoichiometry N stands for a count of units in the complex or per binding partner.

Data set [1] deals with T1, CRP-MTB E178K (Mycobacterium tuberculosis, UniProt P9WMH3 1-224, E178K).
T1 sequence: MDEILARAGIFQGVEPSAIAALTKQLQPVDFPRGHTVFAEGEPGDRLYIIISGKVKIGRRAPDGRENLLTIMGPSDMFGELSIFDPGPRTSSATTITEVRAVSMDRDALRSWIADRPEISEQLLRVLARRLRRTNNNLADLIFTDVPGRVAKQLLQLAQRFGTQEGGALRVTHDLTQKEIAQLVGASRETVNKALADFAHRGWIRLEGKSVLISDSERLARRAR
In words: fluorescence anisotropy; 1 mM cAMP. The conditions noted are these: protein: recombinant; tags: His-tag (pET-3a); chain copies: 2; blunt.

For data set [2], the target named is T2, CRP-MTB L47P (Mycobacterium tuberculosis, UniProt P9WMH3 1-224, L47P).
T2 sequence: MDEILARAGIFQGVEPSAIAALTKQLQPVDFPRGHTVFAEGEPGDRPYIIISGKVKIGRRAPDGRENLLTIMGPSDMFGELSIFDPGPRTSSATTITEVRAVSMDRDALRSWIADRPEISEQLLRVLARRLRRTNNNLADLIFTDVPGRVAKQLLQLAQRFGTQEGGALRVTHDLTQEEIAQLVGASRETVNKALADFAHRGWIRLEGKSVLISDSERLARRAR
In words: fluorescence anisotropy; no cAMP (apo). The conditions noted are these: protein: recombinant; tags: His-tag (pET-3a); chain copies: 2; blunt. In general terms: Fluorescence polarisation rises when a labelled molecule tumbles more slowly, as on binding a larger partner.

For data set [3], the target named is T1, CRP-MTB E178K. Kind of data set: fluorescence anisotropy; no cAMP (apo). The conditions noted are these: protein: recombinant; tags: His-tag (pET-3a); chain copies: 2; blunt.
For data set [4], the target named is T2, CRP-MTB L47P. In words: fluorescence anisotropy; 0.1 mM cAMP. The conditions noted are these: protein: recombinant; tags: His-tag (pET-3a); chain copies: 2; blunt.
The target in data set [5] is T1, CRP-MTB E178K. Kind of data set: fluorescence anisotropy; 0.1 mM cAMP. The conditions noted are these: protein: recombinant; tags: His-tag (pET-3a); chain copies: 2; blunt.
Data set [6] has as its target T3, cAMP receptor protein from Mycobacterium tuberculosis (Mycobacterium tuberculosis), P9WMH3.
T3 chain: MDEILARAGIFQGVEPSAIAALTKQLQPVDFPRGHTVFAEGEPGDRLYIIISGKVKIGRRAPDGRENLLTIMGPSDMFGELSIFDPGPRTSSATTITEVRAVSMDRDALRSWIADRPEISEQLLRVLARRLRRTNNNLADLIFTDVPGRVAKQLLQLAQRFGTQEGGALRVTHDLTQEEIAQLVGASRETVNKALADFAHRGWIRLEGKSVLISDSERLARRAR
In words: AUC. The conditions noted are these: remark: other sources report otherwise.

For data set [7], the target named is T3, cAMP receptor protein from …. In words: SEC. The conditions noted are these: remark: other sources report otherwise.

B1: SerC promoter 32-bp, fluorescein (dsDNA)
DNA 1: GCGCGTAGTGTGAACAAGCTCACATGCAAGCC
DNA 2: GGCTTGCATGTGAGCTTGTTCACACTACGCGC
As for B1, the Ka is 21 ± 12.9 1e8 M-1 with CRP-MTB E178K [1]; 2.7 ± 0.9 1e8 M-1 with CRP-MTB L47P [2]; 15 ± 5.3 1e8 M-1 with CRP-MTB E178K [3]; 7.3 ± 3 1e8 M-1 with CRP-MTB L47P [4]; 10 ± 5 1e8 M-1 in the data set with CRP-MTB E178K [5].

B2: cAMP receptor protein from Mycobacterium tuberculosis, P9WMH3 (natural protein)
chain: MDEILARAGIFQGVEPSAIAALTKQLQPVDFPRGHTVFAEGEPGDRLYIIISGKVKIGRRAPDGRENLLTIMGPSDMFGELSIFDPGPRTSSATTITEVRAVSMDRDALRSWIADRPEISEQLLRVLARRLRRTNNNLADLIFTDVPGRVAKQLLQLAQRFGTQEGGALRVTHDLTQEEIAQLVGASRETVNKALADFAHRGWIRLEGKSVLISDSERLARRAR
In data set [6], B2 gave a Kd below 10 nM. In addition, the stoichiometry N in data set [6] and in data set [7] was 2 in each case.
